The source of these data is paper PMC10055998.

Like-named read-outs stand apart in the source and are kept apart here.

Assay [1] deals with SV2C, the BoNT/A protein receptor, rat (rat (endogenous in primary rat spinal cord cells)) (UniProt Q9Z2I6).
The target in assay [2] is SV2C, the BoNT/A protein receptor, human (human (endogenous in hiPSC-derived motor neurons)) (UniProt Q496J9).
The target in assay [3] is SV2C, the BoNT/A protein receptor, rat (rat (endogenous in primary rat spinal cord cells)) (UniProt Q9Z2I6). The source holds these as a separate data set.

Sequence of UniProt Q9Z2I6 (Q9Z2I6 whole entry): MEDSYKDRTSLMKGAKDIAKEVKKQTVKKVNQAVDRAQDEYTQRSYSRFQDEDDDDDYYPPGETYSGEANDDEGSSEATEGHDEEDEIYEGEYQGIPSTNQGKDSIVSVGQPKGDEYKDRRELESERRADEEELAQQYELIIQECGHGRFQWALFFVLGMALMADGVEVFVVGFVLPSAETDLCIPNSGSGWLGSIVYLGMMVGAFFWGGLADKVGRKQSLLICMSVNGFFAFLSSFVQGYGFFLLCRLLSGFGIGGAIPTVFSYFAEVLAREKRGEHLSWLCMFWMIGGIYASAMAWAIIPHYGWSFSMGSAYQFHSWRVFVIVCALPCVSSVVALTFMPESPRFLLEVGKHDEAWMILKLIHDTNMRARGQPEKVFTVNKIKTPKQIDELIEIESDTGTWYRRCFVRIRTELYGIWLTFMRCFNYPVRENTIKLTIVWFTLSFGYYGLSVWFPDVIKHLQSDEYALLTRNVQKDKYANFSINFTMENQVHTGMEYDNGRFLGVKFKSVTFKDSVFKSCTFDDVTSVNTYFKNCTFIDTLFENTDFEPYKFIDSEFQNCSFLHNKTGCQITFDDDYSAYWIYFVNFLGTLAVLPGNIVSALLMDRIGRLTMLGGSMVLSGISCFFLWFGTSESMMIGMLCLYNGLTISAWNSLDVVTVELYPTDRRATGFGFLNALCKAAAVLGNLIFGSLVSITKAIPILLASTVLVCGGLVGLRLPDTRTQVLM
Sequence of UniProt Q496J9 (Q496J9 whole entry): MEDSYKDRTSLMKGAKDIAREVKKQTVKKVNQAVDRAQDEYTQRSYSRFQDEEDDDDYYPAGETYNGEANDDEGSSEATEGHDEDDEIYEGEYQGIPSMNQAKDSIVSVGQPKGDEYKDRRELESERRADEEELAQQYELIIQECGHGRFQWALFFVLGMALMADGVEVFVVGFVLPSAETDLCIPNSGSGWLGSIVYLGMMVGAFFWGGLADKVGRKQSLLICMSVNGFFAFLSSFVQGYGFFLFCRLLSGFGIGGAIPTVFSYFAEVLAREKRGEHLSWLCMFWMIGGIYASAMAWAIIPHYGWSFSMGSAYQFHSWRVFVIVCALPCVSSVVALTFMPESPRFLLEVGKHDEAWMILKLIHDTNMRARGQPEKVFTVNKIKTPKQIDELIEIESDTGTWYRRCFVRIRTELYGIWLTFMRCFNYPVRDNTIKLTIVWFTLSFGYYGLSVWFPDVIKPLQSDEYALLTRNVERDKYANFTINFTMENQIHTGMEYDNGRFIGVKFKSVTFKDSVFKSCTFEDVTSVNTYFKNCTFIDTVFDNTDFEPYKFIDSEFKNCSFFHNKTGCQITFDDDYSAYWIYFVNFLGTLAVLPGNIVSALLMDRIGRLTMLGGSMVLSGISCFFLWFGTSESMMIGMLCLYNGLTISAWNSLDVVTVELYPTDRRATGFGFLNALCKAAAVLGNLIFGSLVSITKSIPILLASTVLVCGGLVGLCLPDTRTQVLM

With “Botulinum neurotoxin subtype A1 (BoNT/A1), 150-kDa holotoxin (from UniProt P0DPI0) (natural protein)”, the EC50 RSC (SNAP-25 cleavage in primary rat spinal cord cells, 48 h) in assay [1] is 1.1 pg/Well; in assay [3] it was 1 pg/Well. Also, the EC50 MN (SNAP-25 cleavage in hiPSC derived motor neurons, 48 h) in assay [2] stood at 0.07 pg/Well.
